Biological target: human ALDH2 T244A substituted enzyme (human) (UniProt P05091)
Assay: crystal structure

stoichiometry N: 4
Substance: human ALDH2 T244A substituted enzyme (from UniProt P05091 18-517)
